Data on twelve molecules can be found in patent US20250250357A1 (NANJING ZAIMING PHARMACEUTICAL, published 2025).

Assay [1] has as its target T1, human MSLN-FL-his protein (human, UniProt Q13421 296-580).
T1 construct: Made in HEK293E cells, purified on nickel column; it is put last here; also called human MSLN full-length protein; hMSLN-FL-his; not shown: His tag
As to the kind of experiment: ELISA on coated antigen, antibody 1 nM. In general terms: In an ELISA, binding on a coated surface is turned into a signal by an enzyme label.

The target of assay [2] is T1, human MSLN-FL-his protein. As to the kind of experiment: ELISA on coated antigen, antibody 10 nM.
Protocol: (§1) The plate was sealed with a plastic film and incubated at 4° C. overnight. The next day, the plate was washed twice with PBST, and a blocking buffer [PBS+2% (w/w) BSA] was added for blocking at room temperature for 2 h. The blocking buffer was discarded, and a chimeric antibody or negative control antibody serially diluted from 100 nM was added at 50 μL/well. After incubation at 37° C. for 2 h, the plate was washed 3 times with PBST. […] After incubation at 37° C. for 2 h, the plate was washed 5 times with PBST. A TMB substrate was added at 50 μL/well for incubation at room temperature for 5-10 min, and then a stop solution (1.0 N HCl) was added at 50 μL/well.
For assay [3], the target named is T1, human MSLN-FL-his protein. As to the kind of experiment: ELISA on coated antigen, antibody 0.1 nM.
Protocol: as §1
Assay [4] addresses T1, human MSLN-FL-his protein. As to the kind of experiment: ELISA on coated antigen, antibody 100 nM.
Protocol: as §1
Assay [5] addresses T1, human MSLN-FL-his protein. As to the kind of experiment: ELISA on coated antigen, antibody 0.01 nM.
Protocol: as §1
Assay [6] addresses T1, human MSLN-FL-his protein. As to the kind of experiment: ELISA on coated antigen, antibody 0.001 nM.
Protocol: as §1
Assay [7] addresses T1, human MSLN-FL-his protein. As to the kind of experiment: ELISA on coated antigen, antibody 0.0001 nM.
Protocol: as §1
Assay [8] concerns the target T1, human MSLN-FL-his protein. As to the kind of experiment: ELISA on coated antigen, no antibody (blank, column 'none').
Protocol: as §1

T1 sequence (Q13421 other isoform, or with tags, fused parts or gaps): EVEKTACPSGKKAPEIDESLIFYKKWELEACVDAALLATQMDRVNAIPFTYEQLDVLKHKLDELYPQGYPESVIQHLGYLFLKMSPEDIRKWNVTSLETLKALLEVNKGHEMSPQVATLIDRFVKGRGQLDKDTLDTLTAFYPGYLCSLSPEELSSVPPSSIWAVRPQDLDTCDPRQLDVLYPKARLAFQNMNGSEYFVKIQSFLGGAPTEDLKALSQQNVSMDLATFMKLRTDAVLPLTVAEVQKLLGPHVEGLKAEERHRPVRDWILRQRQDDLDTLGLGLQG

B1: S009-F8-8.22 (antibody, human IgG1, kappa, V domains shown)
VH: EVQLQQSGPELVKPGASVKMSCKASGYTFTDYIIHWVKQSHGKSLEWIAYIFPNNGGTGYNQKFRGKATLTVNKSSSTAYMELRSLTSEDSAVYYCARWRLRQYFDVWGTGTTVTVSS
VL: DIVMTQSQKFMSTIVGDRVSITCKASQNVGTAVAWYQQKPGQSPKLLIYSASNRYTGVPDRFTGSGSGTDFTLTISNMQSEDLADYFCQQYSSYPLTFGGGTKLEIKR
notes: Human-murine chimeric antibody, human IgG1 heavy and kappa light constant regions
With B1, the OD450 in assay [1] was determined as 2.75 OD; in assay [2], 3.15 OD; in assay [3] it was 1.97 OD; in assay [4] it was 3.15 OD; in assay [5], 0.91 OD; in assay [6] it was 0.23 OD. Also, the OD450 in assay [7] amounted to 0.1 OD; in assay [8], 0.05 OD.

B2: S009-F8-24.14 (antibody, human IgG1, kappa, V domains shown)
VH: EFQLQQSGPELVKPGASVKISCKASGYSFTDYNMNWVKLSNGKSLEWIGVIIPNYGTSSYNQKFKGKATLTVDQSSSTAYMQLNSLTSEDSAVYYCARWDNYYGSSLDYWGQGTTLTVSS
VL: DIVMTQSQKFMSTTVGDRVSITCKASQNVGTAVAWYQQKPGQSPKLLIYSASNRYTGVPDRFTGSGSGTDFILTISNMQSEDLADYFCQQYSSYPLTFGAGTKLELKR
notes: as for B1
Take B2: the OD450 in assay [1] turned out to be 2.77 OD; in assay [2], 2.98 OD; in assay [3], 2.02 OD; in assay [4] it was 2.91 OD; in assay [5] it was 0.75 OD; in assay [6], 0.18 OD. For the same molecule, the OD450 stood at 0.1 OD in assay [7] and 0.06 OD in assay [8].

B3: S009-F8-12.13 (antibody, human IgG1, kappa, V domains shown)
VH: QVQLQQPGAELVKPGASVKLSCKASGYTFTSYWMHWVKQRPGQGLEWIGMIHPNSGSTNYNEKFKSKATLTVDKSSSTAYMQLSSLTSEDSAVYYCARRTPIITLVGHWYFDVWGTGTTVTVSS
VL: DIVMTQSHKFMSTSVGDRVSITCKASQDVGTAVAWYQQKPGQSPKLLIYWASTRHTGVPDRFTGSGSGTDFTLTISNVQSEDLADYFCQQYSSYPLTFGAGTKLELKR
notes: as for B1
On to B3, for which the OD450 in assay [1] was 2.42 OD; in assay [2], 2.53 OD; in assay [3], 2.22 OD; in assay [4], 2.94 OD; in assay [5], 1.26 OD; in assay [6], 0.49 OD. Further, the results for the OD450 in assay [7] and in assay [8] were 0.32 OD and 0.05 OD, respectively.

B4: S009-F8-15.19 (antibody, human IgG1, kappa, V domains shown)
VH: EFQLQQSGPELVKPGASVKISCKASGYSFTDYNMNWVKQSNGKSLEWIGIINPYYGTTSNNQNFKGKATLTVDQSSSTAYMQLNSLTSDDSAVYYCARWLRRDAMDYWGQGTSVTVSS
VL: DIVMTPSHKFMSTSVGDRVSIACKASQDVGSSVAWYQQKPGQSPKLLIYWTSTRHTGVPDRFTGSGSGTDFTLTISNVQSEDLADYFCQQYSSYPWTFGGGTKLEIKR
notes: as for B1
As to B4, the OD450 came to 2.23 OD in assay [1]; 2.47 OD in assay [2]; 1.11 OD in assay [3]; 2.64 OD in assay [4]; 0.24 OD in assay [5]; 0.08 OD in assay [6]. Further, the OD450 in assay [7] and in assay [8] was 0.05 OD in each case.

B5: S009-F8-29.1 (antibody, human IgG1, kappa, V domains shown)
VH: QVQLQQSGAELARPGASVKMSCKASGYTFISYTMHWVKQRPGQGLEWIGYINPSSGYTKYNQKFKDKATLTADKSSSTAYMQLNSLTSEDSAVYYCARYYSNPDYYAMDYWGQGTSVTVSS
VL: QIVLTQSPAIMSASPGEKVTITCSASSSVSYMHWFQQKPGTSPKLWIYSTSNLASGVPARFSGSGSGTSYSLTISRMEAEDAATYYCQQRSSYPLTFGGGTKLELKR
notes: as for B1
Turning to B5, the OD450 in assay [1] turned out to be 2.9 OD; in assay [2], 3.2 OD; in assay [3], 1.71 OD; in assay [4], 3.07 OD; in assay [5], 0.48 OD; in assay [6] it was 0.13 OD. For the same molecule, the OD450 came out at 0.07 OD in assay [7] and 0.18 OD in assay [8].

B6: S009-F8-31.22 (antibody, human IgG1, kappa, V domains shown)
VH: EVQLVESGGDLVKPGGSLKLSCAASGFTFSTYGMSWVRQTPDKRLEWVATISSGGSYTYYPDSLKGRFTISRDNAKNTLYLQMSSLKSEDTAMYYCARHEGYYYGKDYWGQGTTLTVSS
VL: DIVLTQSPATLSVTPGDSVSLSCRASHSISNNLHWYQQKSHESPRLLIKYASQSISGIPSKFSGSGSGTDFTLSINSVETEDFGMYFCQQTNSWPLTFGAGTKLELKR
notes: as for B1
With B6, the OD450 worked out at 2.53 OD in assay [1]; 2.56 OD in assay [2]; 2.19 OD in assay [3]; 2.66 OD in assay [4]; 0.85 OD in assay [5]; 0.2 OD in assay [6]. Moreover, the OD450 in assay [7] and in assay [8] was 0.08 OD throughout.

B7: S009-F8-13.8 (antibody, human IgG1, kappa, V domains shown)
VH: EFQLQQSGPELVKPGASVKISCKASGYSFTDYNMNWVKQTNGKSLEWIGIINPNYGTSSYNQKFKGKATLTVDQSSSTAYMQLNSLTSEDSAVYYCARVGRDNSGFDYWGQGTTLTVSS
VL: QIVLTQSPAIMSASPGEKVTMTCSASSSVSYMYWYQQKPGSSPRLLIYDTSNLASGVPVRFSGSGSGTSYSLTISRMEAEDAATYYCQQWSSYPPTFGSGTELEIKR
notes: as for B1
As to B7, the OD450 worked out at 2.05 OD in assay [1]; 2.34 OD in assay [2]; 1.18 OD in assay [3]; 2.69 OD in assay [4]; 0.24 OD in assay [5]; 0.07 OD in assay [6]. Besides, the OD450 in assay [7] and in assay [8] was 0.05 OD each time.

B8: S009-F8-22.23 (antibody, human IgG1, kappa, V domains shown)
VH: QVQLKQSGPGLVQPSQSLSITCTVSGFSLFSYGVHWVRQSPGKGLEWLGVIWSGGSTDYNAAFISRLSISKDNSKSQVFFKMNSLQADDTAMYYCARNGGSMITTLYYAMDYWGQGTSVTVSS
VL: DVVMTQTPLSLPVSLGDQASISCRSSQSLVHSYGNTYLHWYLQKPGQSPKLLIYKVSNRFSGVPDRFSGSGSGTDFTLKISRVEAEDLGVYFCSQSTHIPFTFGGGTKLEIKR
notes: as for B1
Regarding B8, the OD450 in assay [1] turned out to be 2.49 OD; in assay [2], 2.88 OD; in assay [3], 1.71 OD; in assay [4], 2.9 OD; in assay [5], 0.92 OD; in assay [6] it was 0.44 OD. Further, the results for the OD450 in assay [7] and in assay [8] were 0.29 OD and 0.04 OD, respectively.

B9: S009-F8-27.1 (antibody, human IgG1, kappa, V domains shown)
VH: EVQLVESGGGLVKPGGSLKLSCAASGFTFSSYAMSWVRQTPEKRLEWVATISDGGNYTYYPDNVKGRFTISRDNAKNNLYLQMSHLKSEDTAMYYCAGDRGYPYAMDSWGQGTSVTVSS
VL: NIMMTQSPSSLAVSAGEKVTMSCKSSQSVLYSSNQKNYLAWYQQKPGQSPKLLIYWASTRESGVPDRFTGSGSGTDFTLTISNVHAEDLAVYYCHQYLSSLTFGAGTKLELKR
notes: as for B1
In the case of B9, the OD450 in assay [1] was found to be 2.23 OD; in assay [2], 2.37 OD; in assay [3], 1.34 OD; in assay [4] it was 2.5 OD; in assay [5] it was 0.31 OD; in assay [6] it was 0.08 OD. Moreover, the OD450 worked out at 0.05 OD in assay [7] and 0.04 OD in assay [8].

B10: S009-F8-28.23 (antibody, human IgG1, kappa, V domains shown)
VH: EVQLVESGGDLVKPGGSLKLSCAASGFTFSSYAMSWVRQTPEKRLEWVATISDGGSYTYYPDNVEGRFTISRDNAKNNLYLQMSHLKSEDTAMYYCAGDRGYSYALDYWGQGTSVTVSS
VL: NIMMTQSPSSLAVSAGEKVTMSCKSSQSVLYSSNQKNYLAWYQQKPGQSPKLLIYWASTRESGVPDRFTGSGSGTDFTLTISSVQAEDLAVYYCHQYLSSLTFGAGTKLELKR
notes: as for B1
Turning to B10, the OD450 is 2.63 OD in assay [1]; 3.13 OD in assay [2]; 1.04 OD in assay [3]; 3 OD in assay [4]; 0.24 OD in assay [5]; 0.08 OD in assay [6]. Also, the OD450 in assay [7] and in assay [8] was 0.05 OD each time.

B11: S009-F8-18.9 (antibody, human IgG1, kappa, V domains shown)
VH: EFQLQQSGPELVKPGASVKISCKASGYSFTDYNMNWVKQSNGKSLEWIGIINPNYGTTSYNQKFKGRATLTVDQSSSTAYVQLNSLTSEDSAVYYCARGGYDNEAMDYWGQGTSVTVSS
VL: QIVLTQSPAIMSASPGEKVTMTCSASSSVSYMHWYQQKSGTSPKRWIYDTSKLASGVPARFSGSGSGTSYSLTISSMEAEDAATYYCQQWSSNPPTFGAGTKLELKR
notes: as for B1
B11: the OD450 in assay [1] was 2.29 OD; in assay [2], 2.39 OD; in assay [3], 1.93 OD; in assay [4], 2.42 OD; in assay [5] it was 0.71 OD; in assay [6], 0.15 OD. Besides, the OD450 in assay [7] stood at 0.06 OD; in assay [8], 0.05 OD.

B12: S009-F8-19.21 (antibody, human IgG1, kappa, V domains shown)
VH: EFQLQQSGPELVKPGASVKISCKTSGYSFTDYNMNWVKQSNGKSLEWIGVINPNYGTTGYNQKFKGKATLTVDQSSSTAYMQLNSLTSEDSAVYYCARGGYDGEAMDYWGHGTSVTVSS
VL: QIVLTQSPAIMSASPGEKVTMTCSASSSVNYMHWYQQKSGTSPKRWIYDTSKLASGVPARFSGSGSGTSYSLTISSMEAEDAATYYCQQWSSYPPTFGGGTKLEIKR
notes: as for B1
For B12, the OD450 was 2.05 OD in assay [1]; 2.32 OD in assay [2]; 1.61 OD in assay [3]; 2.37 OD in assay [4]; 0.4 OD in assay [5]; 0.1 OD in assay [6]. Further, the OD450 in assay [7] and in assay [8] was 0.06 OD each time.
